Measured values taken from publication PMC11784016.

Assays:
Experiment in all cases: co-IP; 293T cells co-transfected; 400 ug of cell lysate on anti-HA magnetic beads with RNaseA (50 ug/mL), 2 h at 4 C; co-IP buffer 50 mM Tris-Cl pH 7.4, 1% Nonidet-P40, 10% glycerol, 150 mM NaCl; immunoblot with anti-HA and anti-V5 or anti-Flag; band intensities normalised to the immunoprecipitated protein, full-length protein set to 100%
[1] = biological target: APOBEC3G with C-terminal triple HA tag (pcDNA3.1-APOBEC3G-HA) (human) (UniProt Q9HC16)
[2] = biological target: APOBEC3G N-terminal domain, HA-tagged (pcDNA3.1 A3G NTD-HA) (human)
[3] = biological target: APOBEC3F-HA (pcDNA3.1 A3F-HA) (human) (UniProt Q8IUX4)
[4] = biological target: APOBEC3F N-terminal domain, HA-tagged (pcDNA3.1 A3F NTD-HA) (human)
Chain of APOBEC3F N-terminal domain, HA-tagged (pcDNA3.1 A3F NTD-HA) (human) (Q8IUX4 whole entry, the tested form may be a part): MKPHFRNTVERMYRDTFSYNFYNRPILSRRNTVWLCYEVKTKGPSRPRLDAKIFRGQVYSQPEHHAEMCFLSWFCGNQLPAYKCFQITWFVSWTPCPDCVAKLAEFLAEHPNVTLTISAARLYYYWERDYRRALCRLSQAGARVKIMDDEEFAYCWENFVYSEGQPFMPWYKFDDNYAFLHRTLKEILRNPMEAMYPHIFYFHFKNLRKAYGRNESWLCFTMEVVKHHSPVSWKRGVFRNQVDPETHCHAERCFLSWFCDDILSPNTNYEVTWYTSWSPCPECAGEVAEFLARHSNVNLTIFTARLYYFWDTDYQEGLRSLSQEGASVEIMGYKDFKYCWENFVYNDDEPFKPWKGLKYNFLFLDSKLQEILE

Chain of APOBEC3G N-terminal domain, HA-tagged (pcDNA3.1 A3G NTD-HA) (human) (Q9HC16 whole entry, the tested form may be a part): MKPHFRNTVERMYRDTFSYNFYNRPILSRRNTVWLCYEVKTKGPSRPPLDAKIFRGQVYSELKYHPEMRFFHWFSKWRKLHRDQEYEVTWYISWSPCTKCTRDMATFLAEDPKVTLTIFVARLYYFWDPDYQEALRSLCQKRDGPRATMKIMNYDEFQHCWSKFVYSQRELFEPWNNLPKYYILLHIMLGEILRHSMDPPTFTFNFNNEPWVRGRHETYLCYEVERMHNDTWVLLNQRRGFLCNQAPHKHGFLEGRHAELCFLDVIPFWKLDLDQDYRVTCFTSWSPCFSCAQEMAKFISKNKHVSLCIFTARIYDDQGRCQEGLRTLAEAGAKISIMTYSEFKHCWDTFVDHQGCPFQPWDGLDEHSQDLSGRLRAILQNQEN

APOBEC3F C-terminal domain, Flag-tagged (pcDNA3.1 A3F CTD-Flag) (domain or fragment)
fold less immunoprecipitated than full-length A3F and A3F NTD [1]: 17 fold

APOBEC3F N-terminal domain, Flag-tagged (pcDNA3.1 A3F NTD-Flag) (domain or fragment)
fold more immunoprecipitated than full-length A3F [2]: 7 fold

APOBEC3G C-terminal domain, Flag-tagged (A3G CTD-Flag) (domain or fragment)
fold by which full-length A3G in the co-IP exceeded this construct [3]: 42 fold

APOBEC3G N-terminal domain, Flag-tagged (pcDNA3.1 A3G NTD-Flag) (domain or fragment)
fold by which full-length A3G in the co-IP exceeded this construct [3]: 6 fold | fold less in the co-IP than the full-length protein [4]: 1000 fold
